Results taken from patent publication US20220306762A1 (CRYSTAL BIOSCIENCE, published 2022).

Experiments:
[1] = target: T1, His-tagged human CD38 (ACRO Biosystems CD8-H5224) (human, UniProt P28907 43-300); assay: SPR (second run), His-tagged CD38
T1 construct: bought protein; used for ELISA coating and as SPR analyte; not shown: His tag

[2] = target: T2, His-tagged cynomolgus monkey CD38 (ACRO Biosystems, CD8-05223 [sic]) (cynomolgus monkey, UniProt Q5VAN0 43-301); assay: SPR (second run), His-tagged CD38
T2 construct: bought protein; used for ELISA coating and as SPR analyte; not shown: His tag

[3] = target: T1, His-tagged human CD38 (ACRO Biosystems …); assay: SPR, IgG
[4] = target: T2, His-tagged cynomolgus monkey CD38 (ACRO …); assay: SPR, IgG

Row | Binder | Kd [1] [nM] | Kd [2] [nM] | Kd [3] [nM] | Kd [4] [nM]
1 | 40769p1.1.E2 (scFv, V domains shown) VH: EVLLLESGGGLVQPGGSLRLSCAASGFTFSDYWMSWVRQAPGKGLEWVSTISISAGIIYYADSVKGRFTISRDNSKNTLYLQMNSLRAEDTAVYYCAKDNWNDYYGMDVWGQGTTVTVSS VL: QSVLTQPPSASGTPGQRVTMSCSGNNQNIRDNYVYWYQQVPGTAPKLLIYKDDQRPSGVPDRFSGSKSGTSASLAISGLQSEDEADYYCATWDGSLKARVFGGGTKLTVL | 6.99 | 8.31 |  | 
2 | 40769p2.1.C1 IgG (antibody, V domains shown, IgG) VH: EVQLLESGGGLVQPGGSLRLSCAASGFSFSDYWMNWVRQAPGKGLEWVSTISSGGNMIYYADSVKGRFTISRDNSKNTLYLRMNSLRAEDTAVYYCAKDNWNDYYGMDVWGQGTTVTVSS VL: QSVLTQPPSASGTPGQRVTISCSGSSSNIRDNYVYWYQQVPGTAPKLLIYKDDQRPSGVPDRFSGSKSGSSASLAISGLQSEDEADYYCATWDGSLNARVFGGGTKLTVL |  |  | 60.7 | 29.3
3 | 40769p2.2.H4 IgG (antibody, V domains shown, IgG) VH: EVQLLESGGGLVQPGGSLRLSCAASGFDFSSYWMNWVRQAPGKGLEWVSTISSGGSIIYYADSVKGQFTISRDNSKNTLYLQMNSLRAEDTAVYYCAKDNWNDYYGMDVWGQGTTVTVSS VL: QSVPTQPPSASGTPGQRVTISCSGSSSNIRDNYVYWYQQVPGTAPKLLIYKDDQRPSGVPDRFSGSKSGTSASLAISGLQSEDEADYYCATWDGSLNARVFGGGTKLTVL |  |  | 57 | 167
4 | 40769p1.1.H1 (scFv, V domains shown) VH: EVQLLESGGGLVQPGGSLRLSCAASGFTFSDYWMNWVRQAPGKGLEWVSTISSGGSMIYHADSVKGRFTISRDNSKNTLYLQMNSLRPEDTAVYYCAKDNWNDYYGMDVWGQGTTVTVSS VL: QSVLTQPPSASGTPGQRVNISCSGSSSNIRYNYVYWYQQVPGTAPKLLIYKDDQRPSGVPDRFSGSKSGTSASLAISELQSEDEADYYCATWDGSLNARVFGGGTKLTVL | 58.5 | 59.9 |  | 
5 | 40769p1.1.G10 (scFv, V domains shown) VH: EVQLLESGGGLVQPGGSLRLSCAASGFTFSDYWMNWVRQAPGKGLEWVSTISSGGSMIYHADSVKGRFTISRDNSKNTLYLQMNSLRPEDTAVYYCAKDNWNDYYGMDVWGQGTTVTVSS VL: QSVLTQPPSASGTPGQRVNISCSGSSSNIRYNYVYWYQQVPGTAPKLLIYKDDQRPSGVPDRFSGSESGTSASLAISGLQSEDEADYYCATWDGSLNARVFGGGTKLTVL | 1.71 | 72.1 |  | 
6 | 40596p2.1.B8 IgG (antibody, V domains shown, IgG) VH: EVQLLESGGGLGQPGGSLRLSCAASGFDFSSYAMSWVRQAPGKGLEWVAGGGWSGSFIYYADSVKGRFTISRDNSKNTLYLQMNSLRAEDTAVYYCTRNPGFGEMDVWGQGTTVTVSS VL: EIVLTQSPGTLSLSPGERATLSCRASQTVGSNLAWYQQKPGQAPRLLIHGANNRATDIPDRFSGSGSGTEFTLTVSSLQSEDFAIYYCQQYNSWPPLTFGGGTKVEIK |  |  | 18.5 | 159
7 | 40617p1.1.F1 (scFv, V domains shown) VH: KVQLLESGGGLVQPGGSLRLSCAASGFTFSSYSMTWVRQAPGKGLEWVSRIYNGGSTYYADSVKGRFTISRDNSKNTLYLQMNSLRAEDTAVYYCARDTYAIDVWGQGTTVTVSS VL: EIVLTQSPATLSVSPGERATLSCRASQGIAGNLAWYQQKPGQAPRLLIYAASNRATGIPARFSGSGSGTDFTLTISSLQSEDFAVYYCQHYYDWPPYSFGGGTKVEIK | 119 | 786 |  | 
8 | 40769p2.2.C11 IgG (antibody, V domains shown, IgG) VH: EVQLLESGGGLVQPGGSLRLSCAASGFTFSDYEMNWVRQAPGKGLEWVSSISITGSWTYYADSVKGRFTISRDNSKNTLYLQMNNLRAEDTAVYYCANYKSYYGMDVWGHGTTVTVSS VL: not shown |  |  | 0.67 | 2.18
9 | 40769p2.2.A6 IgG (antibody, V domains shown, IgG) VH: EVQLLESGGGLVQPGGSLRLSCAASGFTFSDYEMNWVRQAPGKGLEWVSAISITGSWTYYADSVKGRFTISRDNSENTLYLQMNNLRAEDTAVYYCANYKSYYGMDVWGRGTTVTVSS VL: QSVLTQPPSASGTPGQRVTISCSGSRSNIRNNLVNWYQQLPGTAPKLLIYNTQRPSGVPDRFSGSKSGTSASLAISGLQSEDEADYYCASWDASLNAWVFGGGTKLTVL |  |  | 21.9 | 22.9
10 | 40769p2.2.D3 IgG (antibody, V domains shown, IgG) VH: EVQLLESGGGLIQPGGSLRLSCTASGFDFSSYGMHWVRQAPGKGLEWVGIISDSGGTTYYADSVKGRFTISRDNSKNTLYLQMNSLRAEDTALYYCASYIMDVWGQGITVTVSS VL: QSVLTQPPSASGTPGQRVTISCSGSNSNVGVNSVYWYQQLPGTAPKLLIYGSGRRPSGVPDRFSVSKSGTSASLAISGLQSEDEADYYCAAWDGGLNAWVFGGGTKLTVL |  |  | 41.3 | 348
11 | 40769p2.1.E5 IgG (antibody, V domains shown, IgG) VH: EVQLLESGGGLVQPGGSLRLSCTASAHIFKYNWMSWVRQAPGKGLEWVSSINSDGTITYYTDSVKGRFTISRDNSKNTLYLQMNSLRAEDTAVYYCAKDNWNDYAIDVWGQGTTVTVSS VL: QSVLTQPPSASGTPGQRVTISCSGSRSDIRNNYVSWYQQLPGTAPKLLIYSNGQRPSGVPDRFSGSKSGTSASLAISGLQSEDEADYYCAIWDDSLNAWVFGGGTKLTVL |  |  | 1.18 | 467
12 | 40769p2.2.G3 IgG (antibody, V domains shown, IgG) VH: EVQLLESGGGLVQPGGSLRLSCTASGITFSRFNMFWVRQAPGKGLEFVASIRDDGSWTYYADSVKGQFTISRDNSKNTLYLQMNSLRAEDTAVYYCAKDYSSKDFIYHYVMDVWGQGTTVTVSS VL: QSVLTQPPSASGTPGQRVTISCSGRNSNIGNNVVNWYQQLPGTAPKLLIYRNQERPSGVPDRFSGSKSGTSASLAISGLQSEDEADYYCASWDDSLNAWVFGRGTKLTVL |  |  | 50.4 | 205
13 | 40769p1.1.B8 (scFv, V domains shown) VH: EVQLLESGGGLVQPGGSLRLSCAASGFTFEDYAMSWVRQAPGKGLEWVSVISSKGGSTSNADSVKGRFTISRDNSKNTLYLQMNSLRAEDTAVYYCAKGMERQYYSYNAMDVWGQGTTVTVSS VL: QSVLTQPPSASGTPGQRVTISCSGSNSNIDVDYVYWYQQLPGTAPRLLIYKDDQRPSGVPDRFSGSKSGTSASLAISGLQSEDEADYYCATWDDNLNSWLFGGGTKLTVL | 0.25 | 3.29 |  | 
14 | 40769p1.1.A2 (scFv, V domains shown) VH: EVQLLESGGGLVQPGGSLRLSCAASGFLFDDYGMSWVRQAPGKGLEWVSAISYKGGSTYYADSVKGRFTISRDNSKNTLYLQMSSLRAEDTAVYYCAKDHKWNYYGMDVWGQGTTVTVSS VL: QSVLTQPPSASGTPGQRVTISCSGSTSNIGNDNYVSWYQQLPGTAPRLLIYKDDQRPSGVPDRFSGSKSGTSASLAISGLQSEDEADYYCGTWDDRLNAWVFGGGTKLTVL | 0.82 | 0.72 |  | 
15 | 40769p1.2.E3 (scFv, V domains shown) VH: EVQLLESGGDLVQPGGSLRLSCGASGFTFSDHYMSWVRQAPGKGLEWVADISARGSNTWYADSVKGRFTISRDNSENTLYLQMNSLRAEDTAVYYCAKNWNYNYGMDVWGQGTTVTVSS VL: QSVLTQAPSASGTPGQRVTISCSGSSIQNNYVSWYQQLPGTAPKLLIYRNFERPSGVPDRFSASKSGTSASLAISGLQSEDEADYYCASWDDSLNWVFGGGTKLTVL | 6.74 | 4.9 |  | 
16 | 40769p1.2.F9 (scFv, V domains shown) VH: EVQLLESGGDLVQPGGSLRLSCGASGFTFSDHYMSWVRQAPGKGLEWVADISARGSNTWYADSVKGRFTISRDNSENTLYLQMNSLRAEDTAVYYCAKNWNYNYGMDVWGQGTTVTVSS VL: QSVLTQAPSASGTPGQRVTISCSGSSIQNNYVSWYQQLPGTAPKLLIYRNFERPSGVPDRFSASKSGTSASLAISGLQSGDEADYYCASWDDSLNWVFGGGTKLTVL | 8.85 | 8.27 |  | 
17 | 40769p1.2.B4 (scFv, V domains shown) VH: EVQLLESGGDLVQPGGSLRLSCGASGFTFSDHYMSWVRQAPGKGLEWVADISARGSNTWYADSVKGRFTISRDNSENTLYLQMNSLRAEDTAVYYCAKNWNYNYGMDVWGHGTTVTVSS VL: QSVLTQAPSASGTPGQRVTISCSGSSIQNNYVSWYQQLPGTAPKLLIYRNFERPSGVPDRFSASKSGTSASLAISGLQSEDEADYYCASWDDSLNWVFGGGTKLTVL | 8.02 | 7.84 |  | 
18 | 40769p1.1.G12 (scFv, V domains shown) VH: EVQLLESGGGLVQPGGSLRLSCAASGFTFDDYVMSWVRQAPGKGLEWVSEISESDGSNKYYADSVKGRFIISRDNSKNTLYLQMNSLRAEDTAVYYCARLEPEKYYGMDVWGQGTTVTVSS VL: QSVLTQPPSASGTPGQRVTISCSGSNSNIGNNLVSWYQQLPGTAPKLLIYRHDHRPSGVPDRFSGSKSGTSASLAISGLQSEDEADYYCATWDDSLNGRAFGGGTKLTVL | 2.81 | 15.3 |  | 
19 | 40769p2.1.E8 IgG (antibody, V domains shown, IgG) VH: EVQLLESGGGLVQPGGSLRLSCTGFGFTFTDARMSWVRQAPGKGLEWVADISSYGDNTYYADSVKGRFTISRDNSANTLYVQMNSLRAEDTAVYYCAKRMEREVMTIKLDYHAMDVWGQGTTVTVSS VL: QSVLTQTPSVSGTPGQRVTISCSGVFNIRNYVSWYQQLPGTAPKLLIFKDDQRPSGVPDRFSGSRSGTSASLAISGLQSEDEADYYCAAWDIFLNVWVFGGGTKLTVL |  |  | 0.14 | 0.35
20 | 40769p1.1.G5 (scFv, V domains shown) VH: EVQLLESGGGFVQPGGSLRLSCAASGFNFNNAWMNWVRQAPGKGLEWVGIINGDGTNTYYADSVKGRFTISRDNSKNTLYLQMSSLRAEDTAIYYCARDNKLNDYYYAMDVWGQGTTVTV VL: QSVLTQPSSASGTPGQRVTISCSGGSSNIHANYVYWYQQLPGTAPKLLIYRNSQRPSGVPDRFSGSKSGTSASLAISGLQSEDEADYYCGTWDNILNVWVFGGGTKLTVL | 7.56 | 28.1 |  | 
